Measured values taken from patent US20230051266A1 (ABL BIO, published 2023).
Numbering of substitutions follows the chain as printed. Numbers in names are those of the source.

T1: human BCMA on cells (CHOK1-hBCMA; H929 endogenous BCMA) (human, UniProt Q02223 1-184)
T1 construct: Cell-surface BCMA in FACS; also called mammalian expressed BCMA; native antigen
T1 sequence: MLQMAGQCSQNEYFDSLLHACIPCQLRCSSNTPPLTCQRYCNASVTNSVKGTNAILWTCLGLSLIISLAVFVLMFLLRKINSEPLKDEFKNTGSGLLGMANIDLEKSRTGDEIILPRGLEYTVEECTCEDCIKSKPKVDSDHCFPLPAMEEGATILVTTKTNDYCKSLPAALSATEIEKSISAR

T2: Recombinant Human BCMA (human, UniProt Q02223 1-54)
T2 construct: also called hBCMA; recombinant BCMA
T2 sequence: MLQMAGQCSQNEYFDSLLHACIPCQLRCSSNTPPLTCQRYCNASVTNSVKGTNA

T3: human BCMA-Fc protein (human, UniProt Q02223 1-54)
T3 construct: Coated antigen of the DACE
T3 sequence: T2 sequence

B1: 41B01 (anti-4-1BB monoclonal antibody) (antibody, V domains shown)
VH: EVQLLESGGGLVQPGGSLRLSCAASGFTFSSYDMSWVRQAPGKGLEWVSWISYSGGSIYYADSVKGRFTISRDNSKNTLYLQMNSLRAEDTAVYYCARDGQRNSMREFDYWGQGTLVTVSS
VL: QSVLTQPPSASGTPGRRVTISCSGSSSNIGNNYVTWYQQLPGTAPKLLIYADSHRPSGVPDRFSGSKSGTSASLAISGLRSEDEADYYCATWDYSLSGYVFGGGTKLTVL
notes: Tested as a human IgG type antibody (detected with anti-human IgG); also called 1A10
B2: 41B02 (anti-4-1BB monoclonal antibody) (antibody, V domains shown)
VH: EVQLLESGGGLVQPGGSLRLSCAASGFTFSGYDMSWVRQAPGKGLEWVSVIYPDDGNTYYADSVKGRFTISRDNSKNTLYLQMNSLRAEDAAVYYCAKHGGQKPTTKSSSAYGMDGWGQGTLVTVSS
VL: B1 VL
notes: Tested as a human IgG type antibody; also called 1A12
B3: 5A6(NA)xAB41 (bispecific antibody, human IgG1, lambda, N297A)
heavy: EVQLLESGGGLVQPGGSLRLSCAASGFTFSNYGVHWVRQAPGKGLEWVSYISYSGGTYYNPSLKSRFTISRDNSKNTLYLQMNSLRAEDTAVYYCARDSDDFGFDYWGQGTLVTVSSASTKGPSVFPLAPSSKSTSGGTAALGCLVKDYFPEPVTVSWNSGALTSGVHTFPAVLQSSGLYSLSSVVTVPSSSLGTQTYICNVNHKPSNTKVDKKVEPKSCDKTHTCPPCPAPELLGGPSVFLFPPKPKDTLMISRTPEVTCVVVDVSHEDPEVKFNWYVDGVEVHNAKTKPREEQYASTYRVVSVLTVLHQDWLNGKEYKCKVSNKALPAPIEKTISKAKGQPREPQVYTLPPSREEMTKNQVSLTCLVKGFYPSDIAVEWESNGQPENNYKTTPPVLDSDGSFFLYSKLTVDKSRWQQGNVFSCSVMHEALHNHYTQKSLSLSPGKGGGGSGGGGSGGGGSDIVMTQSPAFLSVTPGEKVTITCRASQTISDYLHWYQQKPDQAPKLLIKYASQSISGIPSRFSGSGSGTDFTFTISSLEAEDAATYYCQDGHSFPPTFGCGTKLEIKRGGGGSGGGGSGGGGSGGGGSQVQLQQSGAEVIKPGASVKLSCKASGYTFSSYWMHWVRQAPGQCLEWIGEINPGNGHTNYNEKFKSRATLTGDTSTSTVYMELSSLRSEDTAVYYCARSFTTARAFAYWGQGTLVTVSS
light: QSVLTQPPSASGTPGQRVTISCQGDSLRSYYVNWYQQLPGTAPKLLIYDHSKRPTGVPDRFSGSKSGTSASLAISGLRSEDEADYYCQSYDSSTVVFGGGTKLTVLGQPKAAPSVTLFPPSSEELQANKATLVCLISDFYPGAVTVAWKADSSPVKAGVETTTPSKQSNNKYAASSYLSLTPEQWKSHRSYSCQVTHEGSTVEKTVAPAECS
notes: IgG1 N297A-scFv (VL-(G4S)4-VH)
B4: 5B5(NA)x41B02 (bispecific antibody, human IgG1, kappa, N297A)
heavy: not shown
light: EIVLTQSPGTLSLSPGERATLSCRASQGIDSYVAWYQQKPGQAPRLLIYDASLRATGIPDRFSGSGSGTDFTLTISRLEPEDFAVYYCQQYNSWPITFGQGTKLEIKRTVAAPSVFIFPPSDEQLKSGTASVVCLLNNFYPREAKVQWKVDNALQSGNSQESVTEQDSKDSTYSLSSTLTLSKADYEKHKVYACEVTHQGLSSPVTKSFNRGEC
notes: IgG1 N297A-scFv (VL-(G4S)4-VH); also called 5B5(NA) x41B02 (1A12)
B5: 5A6(NA)x41B01 (bispecific antibody, human IgG1, lambda, N297A)
heavy: not shown
light: B3 light
notes: IgG1 N297A-scFv; also called 5A6(NA) x41B01 (1A10)
B6: 5A6(NA)x41B02 (bispecific antibody, human IgG1, lambda, N297A)
heavy: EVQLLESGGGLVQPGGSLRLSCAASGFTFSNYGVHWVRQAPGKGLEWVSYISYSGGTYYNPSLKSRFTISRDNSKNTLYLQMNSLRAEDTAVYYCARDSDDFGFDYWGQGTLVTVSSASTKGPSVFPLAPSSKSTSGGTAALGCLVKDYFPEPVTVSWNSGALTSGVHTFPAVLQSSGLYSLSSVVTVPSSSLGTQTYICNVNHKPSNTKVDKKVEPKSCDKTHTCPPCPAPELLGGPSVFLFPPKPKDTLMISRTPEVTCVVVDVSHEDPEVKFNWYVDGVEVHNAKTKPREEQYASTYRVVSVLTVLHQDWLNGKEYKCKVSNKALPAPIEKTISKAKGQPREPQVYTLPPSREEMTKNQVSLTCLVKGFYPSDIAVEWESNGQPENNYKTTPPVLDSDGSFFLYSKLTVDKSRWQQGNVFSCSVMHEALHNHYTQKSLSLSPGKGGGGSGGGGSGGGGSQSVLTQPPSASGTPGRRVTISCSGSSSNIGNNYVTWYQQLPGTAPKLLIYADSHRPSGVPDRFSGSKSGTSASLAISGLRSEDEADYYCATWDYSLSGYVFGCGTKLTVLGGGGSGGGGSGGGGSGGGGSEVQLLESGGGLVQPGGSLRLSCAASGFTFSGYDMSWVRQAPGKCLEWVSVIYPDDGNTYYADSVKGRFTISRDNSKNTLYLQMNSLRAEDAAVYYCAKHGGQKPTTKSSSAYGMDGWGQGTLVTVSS
light: B3 light
notes: IgG1 N297A-scFv (VL-(G4S)4-VH); also called 5A6(NA) x41B02 (1A12)
B7: 5D5(NA)x41B01 (bispecific antibody, human IgG1, kappa, N297A)
heavy: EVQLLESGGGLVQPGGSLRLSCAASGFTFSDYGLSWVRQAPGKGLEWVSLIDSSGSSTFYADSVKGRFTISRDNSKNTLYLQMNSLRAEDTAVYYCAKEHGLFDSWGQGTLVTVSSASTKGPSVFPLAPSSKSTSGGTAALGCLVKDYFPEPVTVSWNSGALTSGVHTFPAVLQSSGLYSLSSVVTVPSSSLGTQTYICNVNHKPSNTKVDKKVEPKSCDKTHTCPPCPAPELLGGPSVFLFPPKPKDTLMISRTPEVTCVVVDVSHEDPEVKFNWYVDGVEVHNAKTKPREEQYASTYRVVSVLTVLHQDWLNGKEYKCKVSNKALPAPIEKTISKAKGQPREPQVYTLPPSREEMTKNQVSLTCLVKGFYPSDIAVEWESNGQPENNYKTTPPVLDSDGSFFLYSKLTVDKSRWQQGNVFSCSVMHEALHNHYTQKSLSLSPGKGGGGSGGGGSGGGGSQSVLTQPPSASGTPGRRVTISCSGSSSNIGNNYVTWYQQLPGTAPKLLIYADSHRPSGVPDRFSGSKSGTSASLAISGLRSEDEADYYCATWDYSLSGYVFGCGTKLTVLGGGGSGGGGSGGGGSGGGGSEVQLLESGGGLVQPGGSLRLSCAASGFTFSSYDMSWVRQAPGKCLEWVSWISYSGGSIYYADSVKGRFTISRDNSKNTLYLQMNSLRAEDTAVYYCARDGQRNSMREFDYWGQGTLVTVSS
light: B4 light with R24K, G28D, S31D, Y32D, V33I, A34N, Y91S, N92L, S93R, W94T
notes: IgG1 N297A-scFv; also called 5D5(NA) x41B01 (1A10)
B8: 5D5(NA)x41B02 (bispecific antibody, human IgG1, kappa, N297A)
heavy: not shown
light: B4 light with R24K, G28D, S31D, Y32D, V33I, A34N, Y91S, N92L, S93R, W94T
notes: IgG1 N297A-scFv (VL-(G4S)4-VH); also called 5D5(NA) x41B02 (1A12)
B9: 5B5(NA)x41B01 (bispecific antibody, human IgG1, kappa, N297A)
heavy: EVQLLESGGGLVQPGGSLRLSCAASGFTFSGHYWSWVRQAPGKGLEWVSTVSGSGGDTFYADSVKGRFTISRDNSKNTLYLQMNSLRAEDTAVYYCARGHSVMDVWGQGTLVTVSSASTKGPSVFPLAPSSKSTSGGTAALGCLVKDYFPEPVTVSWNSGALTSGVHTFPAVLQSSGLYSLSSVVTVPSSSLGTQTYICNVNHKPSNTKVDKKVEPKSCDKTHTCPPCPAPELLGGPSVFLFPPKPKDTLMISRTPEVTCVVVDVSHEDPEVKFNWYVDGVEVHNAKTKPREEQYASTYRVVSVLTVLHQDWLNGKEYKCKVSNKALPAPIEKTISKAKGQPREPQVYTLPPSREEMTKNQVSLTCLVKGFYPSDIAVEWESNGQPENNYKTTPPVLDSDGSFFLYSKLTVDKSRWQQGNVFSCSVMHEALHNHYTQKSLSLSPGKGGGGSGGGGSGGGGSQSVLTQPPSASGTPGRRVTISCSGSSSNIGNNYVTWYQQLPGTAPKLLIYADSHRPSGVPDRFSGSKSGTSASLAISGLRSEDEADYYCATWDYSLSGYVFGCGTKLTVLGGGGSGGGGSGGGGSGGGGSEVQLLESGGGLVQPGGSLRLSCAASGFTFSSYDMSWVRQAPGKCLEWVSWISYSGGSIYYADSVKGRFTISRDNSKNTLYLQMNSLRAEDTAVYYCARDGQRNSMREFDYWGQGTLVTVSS
light: B4 light
notes: IgG1 N297A-scFv; also called 5B5(NA) x41B01 (1A10)
B10: 5D5(NA)xAB41 (bispecific antibody, human IgG1, kappa, N297A)
heavy: not shown
light: B4 light with R24K, G28D, S31D, Y32D, V33I, A34N, Y91S, N92L, S93R, W94T
notes: as for B3
B11: 5B5(NA)xAB41 (bispecific antibody, human IgG1, kappa, N297A)
heavy: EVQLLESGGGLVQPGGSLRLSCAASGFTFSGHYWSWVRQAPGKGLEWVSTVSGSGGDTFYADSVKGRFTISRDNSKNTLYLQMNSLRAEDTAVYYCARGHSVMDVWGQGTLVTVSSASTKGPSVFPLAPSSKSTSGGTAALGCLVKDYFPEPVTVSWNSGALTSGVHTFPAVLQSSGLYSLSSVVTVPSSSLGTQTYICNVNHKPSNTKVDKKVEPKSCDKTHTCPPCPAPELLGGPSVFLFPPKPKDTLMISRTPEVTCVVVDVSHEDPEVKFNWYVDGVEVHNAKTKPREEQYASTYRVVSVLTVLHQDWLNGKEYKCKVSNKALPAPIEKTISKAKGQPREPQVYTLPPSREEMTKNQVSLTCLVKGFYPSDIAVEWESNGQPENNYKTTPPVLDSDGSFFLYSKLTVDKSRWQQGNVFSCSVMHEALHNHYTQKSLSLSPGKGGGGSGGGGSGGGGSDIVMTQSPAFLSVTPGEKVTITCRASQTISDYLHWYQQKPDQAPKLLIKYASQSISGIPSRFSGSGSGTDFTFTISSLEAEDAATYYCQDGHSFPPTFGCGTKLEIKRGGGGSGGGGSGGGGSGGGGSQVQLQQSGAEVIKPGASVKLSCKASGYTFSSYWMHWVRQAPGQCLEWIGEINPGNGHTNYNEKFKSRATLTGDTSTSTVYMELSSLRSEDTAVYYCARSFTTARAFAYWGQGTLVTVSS
light: B4 light
notes: as for B3
B12: 5D5(NA)x41B01 M12 (bispecific antibody, human IgG1, kappa, N297A)
heavy: not shown
light: B4 light with R24K, G28D, S31D, Y32D, V33I, A34N, Y91S, N92L, S93R, W94T
notes: also called 5D5(NA)x41B01 M12:WT; 5D5WT(NA)x41B01 M12
B13: 5D5M4(NA)x41B01 M12 (bispecific antibody, human IgG1, kappa, N297A)
heavy: not shown
light: B4 light with R24K, G28D, S31D, Y32A, V33I, A34N, Y91S, N92L, S93R, W94T
notes: IgG1 N297A-(GS)9-scFv
B14: 5A6(NA)x41B01 M12 (bispecific antibody, human IgG1, lambda, N297A)
heavy: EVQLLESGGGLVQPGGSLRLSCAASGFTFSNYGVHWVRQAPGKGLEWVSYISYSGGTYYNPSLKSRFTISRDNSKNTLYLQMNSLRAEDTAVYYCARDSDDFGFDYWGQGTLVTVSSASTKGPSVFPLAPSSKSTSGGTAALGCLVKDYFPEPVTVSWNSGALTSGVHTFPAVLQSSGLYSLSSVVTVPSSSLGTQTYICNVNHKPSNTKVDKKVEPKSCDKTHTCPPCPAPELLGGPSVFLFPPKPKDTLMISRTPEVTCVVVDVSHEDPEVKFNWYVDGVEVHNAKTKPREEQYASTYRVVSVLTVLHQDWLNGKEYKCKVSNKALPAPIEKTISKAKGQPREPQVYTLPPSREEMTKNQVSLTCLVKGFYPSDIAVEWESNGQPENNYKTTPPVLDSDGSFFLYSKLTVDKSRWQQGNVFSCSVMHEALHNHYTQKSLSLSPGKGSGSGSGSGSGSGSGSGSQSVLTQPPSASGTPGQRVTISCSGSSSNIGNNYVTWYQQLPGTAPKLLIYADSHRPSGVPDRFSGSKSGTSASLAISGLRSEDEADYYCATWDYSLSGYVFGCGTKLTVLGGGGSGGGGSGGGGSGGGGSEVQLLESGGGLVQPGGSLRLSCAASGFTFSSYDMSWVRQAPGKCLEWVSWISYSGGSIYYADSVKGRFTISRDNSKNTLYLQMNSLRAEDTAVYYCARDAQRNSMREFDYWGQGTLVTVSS
light: B3 light
notes: also called 5A6(NA)x41B01 M12:WT; 5A6WT(NA)x41B01 M12
B15: 5A6M6(NA)x41B01 M12 (bispecific antibody, human IgG1, lambda, N297A)
heavy: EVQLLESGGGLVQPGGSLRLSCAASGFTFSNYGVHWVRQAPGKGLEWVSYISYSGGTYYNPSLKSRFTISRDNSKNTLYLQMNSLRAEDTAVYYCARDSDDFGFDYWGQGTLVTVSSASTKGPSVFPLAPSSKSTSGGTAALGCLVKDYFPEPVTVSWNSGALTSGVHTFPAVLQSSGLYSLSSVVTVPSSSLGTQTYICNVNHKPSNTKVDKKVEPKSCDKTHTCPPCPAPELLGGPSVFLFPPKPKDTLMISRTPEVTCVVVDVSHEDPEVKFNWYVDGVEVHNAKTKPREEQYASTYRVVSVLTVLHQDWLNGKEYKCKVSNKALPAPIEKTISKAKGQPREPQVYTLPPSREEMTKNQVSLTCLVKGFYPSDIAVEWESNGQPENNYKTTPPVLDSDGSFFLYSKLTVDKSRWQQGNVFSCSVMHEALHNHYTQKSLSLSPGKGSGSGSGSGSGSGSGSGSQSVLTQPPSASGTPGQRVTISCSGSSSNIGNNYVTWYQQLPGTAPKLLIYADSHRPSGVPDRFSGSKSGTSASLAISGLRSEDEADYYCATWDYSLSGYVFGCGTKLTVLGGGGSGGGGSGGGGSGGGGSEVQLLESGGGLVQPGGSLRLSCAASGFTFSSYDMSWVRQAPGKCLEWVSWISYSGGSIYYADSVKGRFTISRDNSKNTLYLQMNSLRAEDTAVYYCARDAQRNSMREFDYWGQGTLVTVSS
light: B3 light with D25E, S92A
notes: IgG1 N297A-(GS)9-scFv

Molecular target: T4, Recombinant Human 4-1BB protein (human, UniProt Q07011 24-186)
T4 construct: also called h4-1BB; 4-1BB antigen
Assay: BLI, Octet Red 96
Excerpt: To explore the binding kinetics of the humanized antibody, this example performed the affinity ranking by using Octet Red 96.

Row | Binder | Kd | koff | kon
1 | B1 | 0.18 nM | 0.000119 s⁻¹ | 658000 M⁻¹ s⁻¹
2 | B2 | 1.01 nM | 0.000603 s⁻¹ | 595000 M⁻¹ s⁻¹

Molecular target: T5, human 4-1BB on GloResponse NFkB-luc2/4-1BB Jurkat cells (human, UniProt Q07011 24-255)
T5 sequence (Q07011 24-255): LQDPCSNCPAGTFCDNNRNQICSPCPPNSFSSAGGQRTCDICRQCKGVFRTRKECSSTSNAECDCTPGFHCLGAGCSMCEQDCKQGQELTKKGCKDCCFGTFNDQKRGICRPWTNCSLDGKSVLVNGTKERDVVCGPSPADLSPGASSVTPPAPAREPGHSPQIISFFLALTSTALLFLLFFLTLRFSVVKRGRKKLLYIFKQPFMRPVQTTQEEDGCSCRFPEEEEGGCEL
Assay: cell-based or functional assay

Row | Binder | 4-1BB reporter bioassay (NFkB-luc2/4-1BB Jurkat) with CHOK1-hBCMA cells, EC50
3 | B3 | 0.0397 nM
4 | B4 | 0.003 nM
5 | B5 | 0.0616 nM
6 | B6 | 0.0413 nM
7 | B7 | 0.0691 nM
8 | B8 | 0.0314 nM
9 | B9 | 0.0316 nM
10 | B10 | 0.0426 nM
11 | B11 | 0.0741 nM

Molecular target: T5, human 4-1BB on GloResponse …
Assay: cell-based or functional assay
Remark: another data set of the same source

Row | Binder | 4-1BB reporter bioassay (NFkB-luc2/4-1BB Jurkat) with H929 cells, EC50
12 | B4 | 12.1 nM
13 | B5 | 3.16 nM
14 | B6 | 14.3 nM
15 | B7 | 5.35 nM
16 | B8 | 10.9 nM
17 | B9 | 5.76 nM

Molecular target: T5, human 4-1BB on GloResponse …
Assay: cell-based or functional assay
Remark: another data set of the same source

Row | Binder | In vitro 4-1BB activation (reporter bioassay) with H929 cells, EC50 | In vitro 4-1BB activation (reporter bioassay) with MM1S cells, EC50
18 | B12 | 0.629 nM | 2.66 nM
19 | B13 | 0.377 nM | 2.41 nM
20 | B14 | 0.459 nM | 2.26 nM
21 | B15 | 0.165 nM | 1.98 nM

Molecular target: T1, human BCMA on cells (CHOK1-hBCMA; H929 …)
Assay: FACS, 100 nM antibody, H929 cells
Method: (§1) To evaluate the antigen binding property, the antibody candidates were analyzed for their bindings to BCMA expressed cells by FACS. Briefly, CHOK1 expressing human BCMA (CHOK1-hBCMA) or H929 expressing endogenous BCMA cells were treated with the 100 nM of indicated antibodies at 4° C. for 1 hr. CHOK1 cells were used for BCMA-negative control. After washing by FACS buffer (1% (w/v) BSA in PBS), cells were incubated with the FTTC-anti-human IgG antibody at 4° C. for 1 hr and then subjected to FACS analysis. As shown in FIGS. 2d-2f, the anti-BCMAx4-1BB antibodies bind to BCMA expressed CHOK1-hBCMA and H929 cell lines but not BCMA negative CHOK1.

Row | Binder | quantified FACS signal (name not given)
22 | B3 | 39.9
23 | B4 | 14.9
24 | B5 | 43.8
25 | B6 | 40.3
26 | B7 | 17.9
27 | B8 | 20.2
28 | B9 | 17.6
29 | B10 | 19.7
30 | B11 | 14.1

Molecular target: T1, human BCMA on cells (CHOK1-hBCMA; H929 …)
Assay: FACS, 100 nM antibody, CHOK1-hBCMA cells
Method: as §1

Row | Binder | quantified FACS signal (name not given)
31 | B3 | 636
32 | B4 | 484
33 | B5 | 652
34 | B6 | 646
35 | B7 | 579
36 | B8 | 602
37 | B9 | 493
38 | B10 | 585
39 | B11 | 477

Molecular target: T2, Recombinant Human BCMA
Assay: SPR, bispecific antibody on Protein A chip, antigen flowed
Method: In the SPR experiment, the anti-BCMA/anti-4-1BB bispecific antibodies obtained in Example 3-5 were individually captured on flow-cells 2, 3 and 4, keeping the flow-cell 1 as reference, on a Protein A Chip on which an anti-BCMA/anti-4-1BB Bispecific antibody (5D5M4(NA)×41B01 M12 or 5A6M6(NA)×41B01 M12) had been immobilized by amine coupling. Recombinant Human BCMA or Human 4-1BB protein was flowed across the chip at concentration range from 100 nM to 6.25 nM for human BCMA or 250 nM to 15.625 nM for human 4-1BB and 0.78 nM at […] for 300 seconds, followed by a dissociation phase of 400 seconds. Regeneration was performed with 10 mM Glycine-HCl (pH 2.0).

Row | Binder | Kd | koff | kon
40 | B13 | 16 nM | 0.065 s⁻¹ | 4.07e+06 M⁻¹ s⁻¹
41 | B15 | 22.6 nM | 0.0119 s⁻¹ | 527000 M⁻¹ s⁻¹

Molecular target: T3, human BCMA-Fc protein
Assay: DACE (dual antigen captured ELISA): plate coated with human BCMA-Fc, bispecific antibody titrated, then human 4-1BB-His; Abs at 450 nm

Row | Binder | EC50 (read off the curve)
42 | B12 | ~0.5 nM
43 | B13 | ~0.4 nM
44 | B14 | ~0.5 nM
45 | B15 | ~0.3 nM
